T1: O772P 3-repeat recombinant protein (human)
T1 construct: Repeats are residues 14-452 of the entry
T1 chain: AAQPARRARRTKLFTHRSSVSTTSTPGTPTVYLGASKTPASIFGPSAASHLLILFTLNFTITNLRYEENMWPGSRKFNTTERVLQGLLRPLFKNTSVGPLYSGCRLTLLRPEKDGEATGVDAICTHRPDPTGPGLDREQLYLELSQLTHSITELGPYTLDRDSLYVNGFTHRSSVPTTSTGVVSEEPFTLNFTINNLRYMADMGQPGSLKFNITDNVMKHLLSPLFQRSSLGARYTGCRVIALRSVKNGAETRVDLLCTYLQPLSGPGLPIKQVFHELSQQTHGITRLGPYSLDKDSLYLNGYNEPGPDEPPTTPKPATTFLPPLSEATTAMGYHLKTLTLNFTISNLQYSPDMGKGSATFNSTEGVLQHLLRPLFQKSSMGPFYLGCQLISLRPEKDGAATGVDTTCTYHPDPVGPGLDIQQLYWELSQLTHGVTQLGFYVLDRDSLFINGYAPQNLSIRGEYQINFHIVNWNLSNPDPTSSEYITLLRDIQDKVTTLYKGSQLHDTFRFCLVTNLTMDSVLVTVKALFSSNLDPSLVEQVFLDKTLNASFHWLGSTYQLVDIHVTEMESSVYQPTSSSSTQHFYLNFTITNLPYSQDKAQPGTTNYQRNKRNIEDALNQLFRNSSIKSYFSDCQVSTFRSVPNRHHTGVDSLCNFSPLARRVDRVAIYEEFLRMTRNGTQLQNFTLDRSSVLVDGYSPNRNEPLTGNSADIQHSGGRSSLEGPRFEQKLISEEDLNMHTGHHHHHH


Assays:
[1] = molecular target: T2, CA 125/O772P on OVCAR-3 cells (human, UniProt Q8WXI7 1-14507); test: flow cytometry, OVCAR-3 cells; Ab 2 µg/ml
T2 construct: whole, on cells

[2] = molecular target: T1, O772P 3-repeat recombinant protein; test: ELISA competition, plate-bound O772P 3-repeat; competitor shed CA 125/O772P
Experimental: (§1) On the next day, the plates were washed with 200 μl 1×PBST (1× phosphate-buffered saline (PBS), 0.05% Tween 20) three times and blocked with 100 μl of 1×PBST containing 1% bovine serum albumin (BSA) for 2 hours at 37° C. […] After 1 hour incubation at 37° C., the plates were then washed with 1×PBST three times. For signal detection, 100 μl of HRP-conjugated sheep anti-mouse IgG (1:2000 dilution into 1×PBST+1% BSA, Amersham Biosciences) was added to each well and incubated for 1 hour at 37° C. The plates were washed again with 1×PBST three times. Finally, 100 μl¹ of a mixture of TMB substrate and H₂O₂ (1:1 ratio, KPL) was added into each well and the absorbance was measured at 405 nm with a plate reader (Molecular Devices Corp., Sunnyvale, Calif.). The assay was done in triplicate for each selected antibody and average values were calculated and presented. The percent inhibition compared to no competition was calculated for individual antibodies based on average values. Controls for blank and individual reagents were also included in each experiment.

[3] = molecular target: T1, O772P 3-repeat recombinant protein; test: ELISA competition, plate-bound O772P 3-repeat; competitor soluble O772P 3-repeat
Experimental: as §1

Binder | % positive cells [1] | absorbance w/shed CA 125/O772P competitor (25-fold w/w excess) [2] | absorbance w/O772P 3-repeat competitor (10 x w/w excess) [3]
monoclonal antibody 368.1 (antibody, V domains shown, Murine hybridoma antibody) VH: EVQLQQSGPELVRTGASVKISCKASGYSFTGFYMHWVKQSLGKSLEWIGYVSCYTGATTYTQKFKGKATFTVDTSSSTAYMQLNSLTSEDSAVYYCAREGDYYSMDFWGQGTSVTVSS VL: DVVMTQTPLSLPVSLGDQASISCRSSQSLERTNGNTYLHWYLQKPGQSPKLLIYKVSSRFSGVPDRFSGSGSGTDFTLKISRVEAEDLGIYFCSQTTHGPPTCGGGTKLEIK | 89% | 1.33 OD | 0.915 OD
monoclonal antibody 501.1 (antibody, V domains shown, Murine hybridoma antibody) VH: QIQLVQSGPELKKPGETVQISCKASGYIFTDYGMNWVKQAPGKGLKWMGCINTYTGETIYSDDFRGRFAISLETSASTAFIQINNLKNEDAATYFCARGNYRDAIDYWGQGTSVTVSS VL: DIKMTQSPSSIYASLGERVTITCKASQDIKSYLSWYQQKPWKSPKTLIYYATTLADGVPSRFSGSGSGQDYSLIINSLESDDIATYFCLHHDESPFTFGSGTKLEI | 95% | 0.735 OD | 0.065 OD
monoclonal antibody 117.1 (antibody, V domains shown, Murine hybridoma antibody) VH: QVTLKESGPGILQPSQTLSLTCSFSGFSLSTPGMGVGWIRQPSGKGLEWLAHIWWDDFKRDNPALKSRLTISKDTSSSQVFLKIASVDTADTATYYCVRVDGNFLSWYFDVWGAGTTVTVSS VL: DAVMTQTPLSLPVSLGDQASISCRSSQSLVHSNGNTYLHWYLQKPGQSPKLLIYKVSNRFSGVPDRFSGSGSGTDFTLRISRVEAEDLGVYFCSQSRYVPWTFGGGTKLEIK | 93% | 0.554 OD | 0.071 OD

Source: patent US20050064518A1 (PURDUE PHARMA L P, published 2005)
